Data on 21 molecules can be found in US20070218064A1 (published 2007).

To fix the notation:
B1: mAb MOR05040 (antibody, IgG1, V domains shown)
VH: QVELVQSGAEVKKPGSSVKVSCKASGGTFSSNYISWVRQAPGQGLEWMGAYAQKFQGRVTITADESTSTAYMELSSLRSEDTAVYYCARSKKGMYGGWTYPLMMFDLWGQGTLVTVSS
VL: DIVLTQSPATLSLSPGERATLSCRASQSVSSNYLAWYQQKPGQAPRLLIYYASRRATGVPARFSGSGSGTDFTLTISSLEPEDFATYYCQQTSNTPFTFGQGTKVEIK
B2: mAb MOR05058 (antibody, IgG1, V domains shown)
VH: QVELVQSGAEVKKPGESLKISCKGSGYSFSNYWIGWVRQMPGKGLEWMGIIDPSNSYTNYSPSFQGQVTISADKSISTAYLQWSSLKASDTAMYYCARWYYKPFDVWGQGTLVTVSS
VL: DIVLTQPPSVSGAPGQRVTISCTGSSSNIGSGYDVHWYQQLPGTAPKLLIYGNSKRPSGVPDRFSGSKSGTSASLAITGLQSEDEADYYCSSWTPVFGGGTKLTVL
B3: mAb MOR05059 (antibody, IgG1, V domains shown)
VH: QVELVQSGAEVKKPGESLKISCKGSGYSFSNYWIGWVRQMPGKGLEWMGIIDPSNSYTNYSPSFQGQVTISADKSISTAYLQWSSLKASDTAMYYCARWYYKPFDVWGQGTLVTVSS
VL: DIVLTQPPSVSGAPGQRVTISCTGSSSNIGSGYDVHWYQQLPGTAPKLLIYGNSKRPSGVPDRFSGSKSGTSASLAITGLQSEDEADYYCSWTSVVFGGGTKLTVL
B4: mAb MOR05029 (antibody, IgG1, V domains shown)
VH: QVELVQSGAEVKKPGSSVKVSCKASGGTFSSNYISWVRQAPGQGLEWMGGIIPIFGHANYAQKFQGRVTITADESTSTAYMELSSLRSEDTAVYYCARSKKGMYGGWTYPLMMFDLWGQGTLVTVSS
VL: DIVLTQSPATLSLSPGERATLSCRASQSVSSNYLAWYQQKPGQAPRLLIYYASRRATGVPARFSGSGSGTDFTLTISSLEPEDFAYYCQQTFGQGTKVEIK
B5: mAb MOR05030 (antibody, IgG1, V domains shown)
VH: QVELVQSGAEVKKPGSSVKVSCKASGGTFSSNYISWVRQAPGQGLEWMGGIIPIFGHANYAQKFQGRVTITADESTSTAYMELSSLRSEDTAVYYCARSKKGMYGGWTYPLMMFDLWGQGTLVTVSS
VL: DIVLTQSPATLSLSPGERATLSCRASQSVSSNYLAWYQQKPGQAPRLLIYYASRRATGVPARFSGSGSGTDFTLTISSLEPEDFAYYCQQPFTFGQGTKVEIK
B6: mAb MOR05038 (antibody, IgG1, V domains shown)
VH: QVELVQSGAEVKKPGSSVKVSCKASGGTFSSNYISWVRQAPGQGLEWMGIGYAQKFQGRVTITADESTSTAYMELSSLRSEDTAVYYCARSKKGMYGGWTYPLMMFDLWGQGTLVTVSS
VL: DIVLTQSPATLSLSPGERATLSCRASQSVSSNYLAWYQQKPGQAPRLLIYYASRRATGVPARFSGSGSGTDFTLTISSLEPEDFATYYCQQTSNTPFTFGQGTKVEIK
B7: mAb MOR05042 (antibody, IgG1, V domains shown)
VH: QVELVQSGAEVKKPGESLKISCKGSGYSFSNYWIGWVRQMPGKGLEWMGIIPSTYSPSFQGQVTISADKSISTAYLQWSSLKASDTAMYYCARWYYKPFDVWGQGTLVTVSS
VL: DIVLTQPPSVSGAPGQRVTISCTGSSSNIGSGYDVHWYQQLPGTAPKLLIYGNSKRPSGVPDRFSGSKSGTSASLAITGLQSEDEADYYCSSWTPSSVVFGGGTKLTVL
B8: mAb MOR05041 (antibody, IgG1, V domains shown)
VH: QVELVQSGAEVKKPGESLKISCKGSGYSFSNYWIGWVRQMPGKGLEWMGIIPSTYSPSFQGQVTISADKSISTAYLQWSSLKASDTAMYYCARWYYKPFDVWGQGTLVTVSS
VL: DIVLTQPPSVSGAPGQRVTISCTGSSSNIGSGYDVHWYQQLPGTAPKLLIYGNSKRPSGVPDRFSGSKSGTSASLAITGLQSEDEADYYCSSWTPSSVVFGGGTKLTVL
B9: mAb MOR05043 (antibody, IgG1, V domains shown)
VH: QVELVQSGAEVKKPGESLKISCKGSGYSFSNYWIGWVRQMPGKGLEWMGIPSTYSPSFQGQVTISADKSISTAYLQWSSLKASDTAMYYCARWYYKPFDVWGQGTLVTVSS
VL: DIVLTQPPSVSGAPGQRVTISCTGSSSNIGSGYDVHWYQQLPGTAPKLLIYGNSKRPSGVPDRFSGSKSGTSASLAITGLQSEDEADYYCSSWTPSSVVFGGGTKLTVL
B10: mAb MOR05045 (antibody, IgG1, V domains shown)
VH: QVELVQSGAEVKKPGESLKISCKGSGYSFSNYWIGWVRQMPGKGLEWMGIIPSTYSPSFQGQVTISADKSISTAYLQWSSLKASDTAMYYCARWYYKPFDVWGQGTLVTVSS
VL: DIVLTQPPSVSGAPGQRVTISCTGSSSNIGSGYDVHWYQQLPGTAPKLLIYGNSKRPSGVPDRFSGSKSGTSASLAITGLQSEDEADYYCSSWTPSSVVFGGGTKLTVL
B11: mAb MOR05044 (antibody, IgG1, V domains shown)
VH: QVELVQSGAEVKKPGESLKISCKGSGYSFSNYWIGWVRQMPGKGLEWMGIIPSSTYSPSFQGQVTISADKSISTAYLQWSSLKASDTAMYYCARWYYKPFDVWGQGTLVTVSS
VL: DIVLTQPPSVSGAPGQRVTISCTGSSSNIGSGYDVHWYQQLPGTAPKLLIYGNSKRPSGVPDRFSGSKSGTSASLAITGLQSEDEADYYCSSWTPSSVVFGGGTKLTVL
B12: mAb MOR05046 (antibody, IgG1, V domains shown)
VH: QVELVQSGAEVKKPGESLKISCKGSGYSFSNYWIGWVRQMPGKGLEWMGIIDPSTYSPSFQGQVTISADKSISTAYLQWSSLKASDTAMYYCARWYYKPFDVWGQGTLVTVSS
VL: DIVLTQPPSVSGAPGQRVTISCTGSSSNIGSGYDVHWYQQLPGTAPKLLIYGNSKRPSGVPDRFSGSKSGTSASLAITGLQSEDEADYYCSSWTPSSVVFGGGTKLTVL
B13: mAb MOR05054 (antibody, IgG1, V domains shown)
VH: QVELVESGGGLVQPGGSLRLSCAASGFTFSSFGMSWVRQAPGKGLEWVSITYASVKGRFTISRDNSKNTLYLQMNSLRAEDTAVYYCARYWGTPYLMQFDNWGQGTLVTVSS
VL: DIALTQPASVSGSPGQSITISCTGTSSDVGGYNSVSWYQQHPGKAPKLMIYSVSSRPSGVSNRFSGSKSGNTASLTISGLQAEDEADYYCSSYDTNKPLVVFGGGTKLTVL
B14: mAb MOR05055 (antibody, IgG1, V domains shown)
VH: QVELVESGGGLVQPGGSLRLSCAASGFTFSSFGMSWVRQAPGKGLEWVSNIGTYASVKGRFTISRDNSKNTLYLQMNSLRAEDTAVYYCARYWGTPYLMQFDNWGQGTLVTVSS
VL: DIALTQPASVSGSPGQSITISCTGTSSDVGGYNSVSWYQQHPGKAPKLMIYSVSSRPSGVSNRFSGSKSGNTASLTISGLQAEDEADYYCSSYDTNKPLVVFGGGTKLTVL
B15: mAb MOR05050 (antibody, IgG1, V domains shown)
VH: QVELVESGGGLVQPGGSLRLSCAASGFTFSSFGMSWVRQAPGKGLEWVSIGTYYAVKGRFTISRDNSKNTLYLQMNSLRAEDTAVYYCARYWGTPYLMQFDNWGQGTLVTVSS
VL: DIALTQPASVSGSPGQSITISCTGTSSDVGGYNSVSWYQQHPGKAPKLMIYSVSSRPSGVSNRFSGSKSGNTASLTISGLQAEDEADYYCSSYDTNKPLVVFGGGTKLTVL
B16: mAb MOR05053 (antibody, IgG1, V domains shown)
VH: QVELVESGGGLVQPGGSLRLSCAASGFTFSSFGMSWVRQAPGKGLEWVSNITYYASVKGRFTISRDNSKNTLYLQMNSLRAEDTAVYYCARYWGTPYLMQFDNWGQGTLVTVSS
VL: DIALTQPASVSGSPGQSITISCTGTSSDVGGYNSVSWYQQHPGKAPKLMIYSVSSRPSGVSNRFSGSKSGNTASLTISGLQAEDEADYYCSSYDTNKPLVVFGGGTKLTVL
B17: mAb MOR05048 (antibody, IgG1, V domains shown)
VH: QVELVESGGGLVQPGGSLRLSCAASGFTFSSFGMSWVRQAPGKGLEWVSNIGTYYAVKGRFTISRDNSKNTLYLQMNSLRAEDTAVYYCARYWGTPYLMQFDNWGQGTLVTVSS
VL: DIALTQPASVSGSPGQSITISCTGTSSDVGGYNSVSWYQQHPGKAPKLMIYSVSSRPSGVSNRFSGSKSGNTASLTISGLQAEDEADYYCSSYDTNKPLVVFGGGTKLTVL
B18: mAb MOR05049 (antibody, IgG1, V domains shown)
VH: QVELVESGGGLVQPGGSLRLSCAASGFTFSSFGMSWVRQAPGKGLEWVSITYASVKGRFTISRDNSKNTLYLQMNSLRAEDTAVYYCARYWGTPYLMQFDNWGQGTLVTVSS
VL: DIALTQPASVSGSPGQSITISCTGTSSDVGGYNSVSWYQQHPGKAPKLMIYSVSSRPSGVSNRFSGSKSGNTASLTISGLQAEDEADYYCSSYDTNKPLVVFGGGTKLTVL
B19: mAb MOR05051 (antibody, IgG1, V domains shown)
VH: QVELVESGGGLVQPGGSLRLSCAASGFTFSSFGMSWVRQAPGKGLEWVSITYASVKGRFTISRDNSKNTLYLQMNSLRAEDTAVYYCARYWGTPYLMQFDNWGQGTLVTVSS
VL: DIALTQPASVSGSPGQSITISCTGTSSDVGGYNSVSWYQQHPGKAPKLMIYSVSSRPSGVSNRFSGSKSGNTASLTISGLQAEDEADYYCSSYDTNKPLVVFGGGTKLTVL
B20: mAb MOR05047 (antibody, IgG1, V domains shown)
VH: QVELVESGGGLVQPGGSLRLSCAASGFTFSSFGMSWVRQAPGKGLEWVSNIGTYASVKGRFTISRDNSKNTLYLQMNSLRAEDTAVYYCARYWGTPYLMQFDNWGQGTLVTVSS
VL: DIALTQPASVSGSPGQSITISCTGTSSDVGGYNSVSWYQQHPGKAPKLMIYSVSSRPSGVSNRFSGSKSGNTASLTISGLQAEDEADYYCSSYDTNKPLVVFGGGTKLTVL
B21: mAb MOR05052 (antibody, IgG1, V domains shown)
VH: QVELVESGGGLVQPGGSLRLSCAASGFTFSSFGMSWVRQAPGKGLEWVSITYASVKGRFTISRDNSKNTLYLQMNSLRAEDTAVYYCARYWGTPYLMQFDNWGQGTLVTVSS
VL: DIALTQPASVSGSPGQSITISCTGTSSDVGGYNSVSWYQQHPGKAPKLMIYSVSSRPSGVSNRFSGSKSGNTASLTISGLQAEDEADYYCSSYDTNKPLVVFGGGTKLTVL

The target of this assay is T1, recombinant human IL-23 (hrIL-23), produced at Centocor (human, UniProt P29460 23-328).
T1 sequence 1: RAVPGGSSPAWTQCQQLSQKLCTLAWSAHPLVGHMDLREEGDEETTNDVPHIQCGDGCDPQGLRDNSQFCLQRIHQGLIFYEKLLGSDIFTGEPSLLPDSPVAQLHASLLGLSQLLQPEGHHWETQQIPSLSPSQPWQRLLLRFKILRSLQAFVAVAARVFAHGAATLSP
T1 sequence 2: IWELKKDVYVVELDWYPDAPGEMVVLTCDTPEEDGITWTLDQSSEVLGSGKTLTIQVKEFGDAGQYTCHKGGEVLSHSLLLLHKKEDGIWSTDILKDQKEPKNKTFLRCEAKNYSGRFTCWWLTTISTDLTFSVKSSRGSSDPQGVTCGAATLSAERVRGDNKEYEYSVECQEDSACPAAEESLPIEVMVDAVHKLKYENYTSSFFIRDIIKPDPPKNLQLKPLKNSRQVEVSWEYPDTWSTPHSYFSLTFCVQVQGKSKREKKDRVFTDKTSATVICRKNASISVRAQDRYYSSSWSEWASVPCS
Kind of assay: cell-based or functional assay.
As to B1, the “Inhibition of IL-17 production, IC50” value worked out at 0.00264 µg/mL.

As to B2, the “Inhibition of IL-17 production, IC50” value worked out at 0.00285 µg/mL.

B3: the “Inhibition of IL-17 production, IC50” value came to 0.0106 µg/mL.

B4: the “Inhibition of IL-17 production, IC50” value turned out to be 0.0491 µg/mL.

On to B5, for which the “Inhibition of IL-17 production, IC50” value stood at 0.0646 µg/mL.

On to B6, for which the “Inhibition of IL-17 production, IC50” value was found to be 0.0282 µg/mL.

B7: the “Inhibition of IL-17 production, IC50” value was 0.00127 µg/mL.

Take B8: the “Inhibition of IL-17 production, IC50” value is 0.00301 µg/mL.

Turning to B9, the “Inhibition of IL-17 production, IC50” value turned out to be 0.0144 µg/mL.

Take B10: the “Inhibition of IL-17 production, IC50” value turned out to be 0.0014 µg/mL.

Consider B11, for which the “Inhibition of IL-17 production, IC50” value is 0.0141 µg/mL.

Turning to B12, the “Inhibition of IL-17 production, IC50” value came out at 0.0428 µg/mL.

With B13, the “Inhibition of IL-17 production, IC50” value was determined as 0.00323 µg/mL.

Turning to B14, the “Inhibition of IL-17 production, IC50” value was 0.0916 µg/mL.

Take B15: the “Inhibition of IL-17 production, IC50” value was 0.0277 µg/mL.

Turning to B16, the “Inhibition of IL-17 production, IC50” value was found to be 0.00493 µg/mL.

B17: the “Inhibition of IL-17 production, IC50” value amounted to 0.0162 µg/mL.

As to B18, the “Inhibition of IL-17 production, IC50” value amounted to 0.0162 µg/mL.

Turning to B19, the “Inhibition of IL-17 production, IC50” value was 0.0663 µg/mL.

Take B20: the “Inhibition of IL-17 production, IC50” value worked out at 0.0234 µg/mL.

Take B21: the “Inhibition of IL-17 production, IC50” value turned out to be 0.0178 µg/mL.
